Laboratory results published in the supplement of paper PMC12042874.
± gives the uncertainty stated by the source.

Experiment: amyloid nucleation score (Sup35N fusion, yeast selection) (log enrichment); library NNK3; higher = more nucleation; inactive = no reads after selection
Summary of the method: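 Three technical output replicates were used for random libraries. Psi-negative yeast expressing peptides of 20 random codons fused to Sup35N were induced with 100 μM copper sulfate for 24 hours and grown 7 days at 30°C on medium lacking adenine and uracil, and input and output plasmid inserts were Illumina-sequenced, excluding sequences with under 100 input reads. The nucleation score is the DiMSum log enrichment of output over input reads, centred on the mode score of non-aggregating sequences.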

Substance | amyloid nucleation score
LTSVMIFVLVRIELPNQTLS | inactive
TPDFVRSRKMNWVAIKKRAE | inactive
LVPFSNGCQSGPLTLIWYVA | 2.04 ± 0.068
VVNKPIHISSTYTLYSVVLA | inactive
ERFSFVLVNGVRYFRSNLRW | inactive
SDRFYHCTFHAVTVRWKQRV | inactive
RVSLLNKGVGLRNIRFHEFL | inactive
VWLMGMTYF | inactive
RECVMETWSQVGRWFTCVRV | inactive
LAVYSSINFSRNGGSLTWTI | inactive
DALAVSINCSLFRCCSM | 3.3 ± 0.055
LESFAGQAQWGCGSYQSFCL | inactive
IFSLYMGASCMWLMIVGWLD | inactive
PRSANSARCVTISSNMEHSR | inactive
CSAIFCVVRGFRRVK | inactive
HWFTLSKYGR | inactive
ICILADEYLMCGYGYFHFDY | inactive
HVFRLCMGKTELAYFY | inactive
LGVWRGIGPWRWAKKRWRVA | inactive
DNFRVDLVNRLLFYRISHAA | inactive
MLYRCLAKYRMWHYVDLSLL | inactive
LAIFMDSENSYKRMHTVT | inactive
SDGSTRQSVRRVATPNVSRY | inactive
RPNFDYTIWSMTNWILFTCD | inactive

Substance | amyloid nucleation score
CRVFRNNDYSKVSFWLVSVF | inactive
SLKELRVSLSSLCACDSNNN | inactive
HREPTNSNRMEIELRKSVWR | inactive
AKWCVF | -0.714 ± 2.4
LYLFMAYGVLGVLRQ | 0.397 ± 0.42
WYGLA | inactive
GGKHPGMCFHCEWLGYWFTS | inactive
QSFGMFAVYRAWVSIL | inactive
VTLCLSKLAF | 1.26 ± 0.097
QFVAFVYYVCLLWYTGALLI | inactive
SPDHLGRLLY | inactive
YKTRTKKVS | inactive
FMGLGLQLRLIHLSRG | inactive
YFANTVRTFLVLLQAFVLVV | inactive
AVCEMKIHCYITVPDPSRPR | inactive
INTVLLGYS | inactive
DQCVLRLPFVIRGSHVSGRK | inactive
YLWEYSEMLSTDI | inactive
YIRLGWNVSWMLSSSEYVSH | 0.853 ± 0.12
IKSTTSKVPANMDSWLGTKM | inactive
WRHDMSIFQAQLSTLVGI | inactive
FIGDGSRDRRDGLLDLY | inactive
PFSFCHLLLSKISIGWRYSL | inactive
KDKACRNCHKGVMRVTWVK | 0.012 ± 0.87

Substance | amyloid nucleation score
FSCDIAVILNLDLTMVDLLF | inactive
FKYYRSYYPYICLKSVI | inactive
VVRLWE | inactive
NSYKVLTYVFCQVRANTIYC | 2.04 ± 0.059
DGNKNYDVKFIRLVTNI | inactive
STQTGASRRENSPMGLGYNS | inactive
HYKVPWF | inactive
IESKAWISVAGARFYSLGVG | inactive
LMDDTVQMYR | inactive
FLYSVL | inactive
FTINV | inactive
YDCMSRVLAMARATMCRLGD | inactive
DFTYEL | inactive
SFVKWVKNQHF | inactive
KLVFTIRVF | inactive
LYINVHLEEIIFSLALREK | 1.71 ± 0.057
DIYFCYNIDFLYRVTLRQLR | inactive
SLCFGTP | inactive
RNNCCAKVIYKWLSTFGQTD | inactive
AWVDLVLRGFKGYLTYRSLH | inactive
RSQFV | inactive
TDTSAGFM | inactive
YDNVDNYTTEISVNGCLMMN | inactive
SLRSCVYPMDDGIMQCWSSR | inactive

Substance | amyloid nucleation score
SEVGMVSLRLFWLWWVTKPK | inactive
DWNRLFRVD | inactive
VHYYEE | inactive
SLAAIYSFVYFSSDVIRSHY | 1.34 ± 0.15
EDAFWYYVEWPYKWLQGGHS | inactive
FNLNESSGYVKFYLNGNRPL | inactive
ILFTPMPVVD | inactive
LTKGQ | inactive
PRDCS | inactive
NHKPLWFFDVATTGTGLNR | inactive
DFRSLWTRLSSHRSAFYLLS | inactive
DKCRVCISFC | 1.14 ± 0.13
RDSFTVIVSSSSPMPKLVPE | inactive
IISMFYSSKA | inactive
VYFFSGLGTCD | inactive
SVYLTHSLFLRQLVGYLVHL | inactive
YLYSCDSFCFLDPRYMRCPE | inactive
FSFITL | inactive
GFPKWDESSMSTFDCSIRSR | inactive
KGASIYMVTLFSSSNAKM | 1.28 ± 0.093
FDGVGYATSIMEGNDSG | inactive
KQLDDPRQICIFYPT | inactive
YGRDQSRYYLYSSMGEV | 0.148 ± 0.72
NMVNAIFSAVGLQGFRLFPR | inactive

Substance | amyloid nucleation score
NWKKCYVHYISSADYALRRF | inactive
TESQRSNWCTASIKSMYSYS | inactive
FLDDLTLVHGRSETKKNL | inactive
QILLSLQIWRWWVNRII | inactive
PYGNSELYSERGERAHCNLG | inactive
WASLGINR | inactive
VFMCLANYMFPIPGNRHVPP | 0.053 ± 0.75
HAQCLMSIIEVS | -0.029 ± 1.1
FNSFCAYNTRHYYVVLGGIV | 1.04 ± 0.13
SAKCTKEFYSNASKYFNSYL | inactive
SFVYCIVYLQSPFVLSTMVG | 2.62 ± 0.078
VGTGVM | inactive
RDISGMLYCYEGFYVF | inactive
IICYSWRRFLC | inactive
LHSSNCCNEIVMRNRCWRKF | inactive
LAVYPTGTDRDFGF | inactive
CSRFIREADTWRNRDYWWVF | -0.349 ± 1.2
YRIYFLRCPDLTRMFNFVEL | inactive
IPNDYAVAYAEGQLLVCELK | inactive
QVCYFYIIVLVLD | inactive
KPQYENVMCY | inactive
NIRYFYAFRLA | inactive
IFTDLVA | inactive
